Broadly, the stoichiometry N is a count of units in the complex or per binding partner.

For this assay, the target named is Homo sapiens selenoprotein S U188C (human) (UniProt Q9BQE4). As to the kind of experiment: SEC. In general terms: In gel filtration, larger molecules generally elute earlier.

“Homo sapiens selenoprotein S U188C (from UniProt Q9BQE4 1-189) (natural protein)” had a stoichiometry N of 2.

Source of the values: PMC3483405.
